Read-outs that look alike come from different tables or passages of the source.
T1: mouse CD47 protein (mouse, UniProt Q61735 19-140, limits assumed)
T1 sequence (looked up): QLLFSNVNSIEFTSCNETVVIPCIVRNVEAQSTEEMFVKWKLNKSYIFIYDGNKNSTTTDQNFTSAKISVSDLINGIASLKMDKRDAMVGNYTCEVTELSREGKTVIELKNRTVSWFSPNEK


Legend:
human CD47 protein [1] = molecular target: T2, human CD47 protein (human, UniProt Q08722 19-139, limits assumed); assay: KD; method not stated
T2 construct: Soluble protein used for the KD measurements; construct not described; also called hCD47; CD47 (human)
T2 sequence (Q08722 19-139 limits assumed): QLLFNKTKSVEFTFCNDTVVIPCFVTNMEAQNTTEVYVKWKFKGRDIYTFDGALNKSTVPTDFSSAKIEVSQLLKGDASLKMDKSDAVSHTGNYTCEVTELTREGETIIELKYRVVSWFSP

cynomolgus CD47 protein [2] = molecular target: T3, cynomolgus CD47 protein (cynomolgus monkey, UniProt A0A2K5X523 19-139); assay: KD; method not stated
T3 construct: also called cyCD47; Cyno CD47

human CD47 protein [3] = molecular target: T2, human CD47 protein; assay: half-life of the complex; method not stated
cynomolgus CD47 protein [4] = molecular target: T3, cynomolgus CD47 protein; assay: half-life of the complex; method not stated
cynomolgus CD47 protein [5] = molecular target: T3, cynomolgus CD47 protein; assay: KD; method not stated; remark: listed apart in the source
mouse CD47 protein = molecular target: T1, mouse CD47 protein; assay: column 'Cross-react with mouse'; method not stated
human CD47 protein [6] = molecular target: T2, human CD47 protein; assay: KD; method not stated; remark: listed apart in the source
cynomolgus CD47 protein [7] = molecular target: T3, cynomolgus CD47 protein; assay: KD; method not stated; remark: listed apart in the source
human CD47 protein [8] = molecular target: T2, human CD47 protein; assay: half-life of the complex; method not stated; remark: listed apart in the source
cynomolgus CD47 protein [9] = molecular target: T3, cynomolgus CD47 protein; assay: half-life of the complex; method not stated; remark: listed apart in the source
[10] = molecular target: T4, human CD47 on the cell surface (human); assay: flow cytometry, CHO cells stably overexpressing human CD47; positive control
T4 construct: whole, on cells; also called CHO-hCD47; CD47 on HT1080 tumor cells

Kd (human CD47 protein [1])	Kd (cynomolgus CD47 protein [2])	T1/2 (human CD47 protein [3])	T1/2 (cynomolgus CD47 protein [4])	Kd (human CD47 protein [6])	Kd (cynomolgus CD47 protein [7])	Binder	other results
6.39 nM	9.7 nM	3.6 min	2.52 min	–	–	CD47_P14D04_parent (antibody, V domains shown) VH: EVQLLESGGGLVQPGGSLRLSCAASGFSFSTFTMNWVRQAPGKGLEWVSTISGTGGNTYYADSVKGRFTISRDNSKNTLYLQMNSLRAEDTAVYYCARRRSTVGSNGHSYWFDYWGQGTLVTVSS VL: not shown	–
–	1.02 nM	–	21.1 min	–	–	CD47_P01A11_parent (antibody, V domains shown, also called P01A11_wt) VH: QVQLVQSGAEVKKPGSSVKVSCKASGYTFTNYAISWVRQAPGQGLEWMGGISPLFGTANYAQKFQGRVTITADESTSTAYMELSSLRSEDTAVYYCARDGGRSSDVGWYVGAMDVWGQGTLVTVSS VL: not shown	Kd (cynomolgus CD47 protein [5]): 1.3 nM; Kd (mouse CD47 protein): > 6800 nM
1.72 nM	2.08 nM	21.3 min	20.2 min	–	–	CD47_P01A08_parent (antibody, V domains shown) VH: QVQLVQSGAEVKKPGSSVKVSCKASGYTFSNYAITWVRQAPGQGLEWMGGISPIFGTANYAQKFQGRVTITADESTSTAYMELSSLRSEDTAVYYCARDGGRSSDGGWRGAGMDYWGQGTLVTVSS VL: not shown	–
–	–	–	–	75 nM	105 nM	CD47_P01A11_75 (antibody, V domains shown, Monospecific antibody; also called anti-CD47 antibody P01A11_75) VH: QVQLVQSGAEVKKPGSSVKVSCKASGYTFSSYAISWVRQAPGQGLEWMGGISPIFGTANYAQKFQGRVTITADESTSTAYMELSSLRSEDTAVYYCARDAGRSSDVGWYVGAIDVWGQGTLVTVSS VL: not shown	T1/2 (human CD47 protein [8]): 0.49 min; T1/2 (cynomolgus CD47 protein [9]): 0.48 min; EC50 [10]: 0.98 nM
–	–	–	–	497 nM	704 nM	CD47_P01A11_497 (antibody, V domains shown, Monospecific antibody) VH: QVQLVQSGAEVKKPGSSVKVSCKASGGTFTSYAISWVRQAPGQGLEWMGGISPIFGTANYAQKFQGRVTITADESTSTAYMELSSLRSEDTAVYYCARDAGRSSDVGWYVGALDVWGQGTLVTVSS VL: not shown	–

From patent US20210179716A1 (Pfizer, published 2021)
